Consider two molecules from PMC5915679.

The test deals with human Argonaute-2 (human) (UniProt Q9UKV8). Put plainly: ITC. On the technique in general: In ITC the heat of successive injections is recorded.

In general, Kd refers to the equilibrium constant for the complex coming apart. Low readings indicate tighter binding, high ones weaker binding.

In the case of TVDNGTSAWGKPIDSGPSWGEP [hGW182 (TNRC6A) hook motif], the Kd was 234 nM, the fold lower affinity than without competitor (with 5 μM motif-2) amounted to 7 fold and the fold lower affinity than without competitor (with 10 μM motif-2) came out at 15 fold.
VNRTDLDPRVLSNSGWGQTPIKQNTAWDTETSPRGE (domain or fragment) [hGW182 (TNRC6A) motif-1] yielded an equilibrium dissociation constant (Kd) of 118 nM.
